Molecular target: CD22 (human) (UniProt P20273)
Test: cell-based or functional assay

Substance	IC50 (nM), XTT viability, RL cells, 72 h	IC50 (nM), XTT viability, Ramos cells, 72 h
Anti-CD22 mAb-MMAE8 (Inotuzumab ADC) (antibody)	0.26 nM	0.04 nM
Anti-CD22 mAb-LL37-MMAE8 (Inotuzumab ADC with LL37) (antibody)	0.235 nM	0.035 nM

Reference: patent publication US20230227547A1, “ANTIBODY-PAYLOAD CONJUGATES WITH ENHANCED DELIVERY DOMAIN AND USES THEREOF” (IPROGEN BIOTECH INC., priority 2019, published 2023)
